Blank lines part the entries; values can stand above or below the binder they belong to.
Legend:
[1] = biological target: the molecule itself; experiment: cryo-EM structure; CerS6 dimer mixed with a 1.5x molar excess of nanobody (Nb22 or Nb02), 1 h on ice, complex purified by SEC in GDN, 5 mg/ml; the CerS6–Nb22 complex also after incubation with 120 µM FB1; C2 symmetry imposed
[2] = biological target: human ceramide synthase 6 (CerS6), truncated at Asp350 (Met1-Asp350) (human) (UniProt Q6ZMG9); experiment: as above
[3] = biological target: T1, biotinylated C-terminally Avi-tagged human CerS6 (Homo sapiens, biotin on the Avi tag (in vitro, BirA)); experiment: BLI; Octet Red 384, Streptavidin SA biosensors loaded with 40 µg/ml biotinylated CerS6, SEC buffer with 0.003% LMNG and 0.0003% CHS; screen of unique nanobodies for slow off rates; settings: both partners purified
T1 construct: Ceramide synthase 6 (CerS6), Homo sapiens, UniProt Q6ZMG9; A Gly-Gly-Gly-Ser linker stands between CerS6 and the Avi tag, which lies upstream of the TEV cleavage site; also called biotinylated CerS6; Avi-tagged CerS6; not shown: Avi, C-terminal, kept; 10xHis, C-terminal, cleaved; Twin-Strep, C-terminal, cleaved
T1 chain: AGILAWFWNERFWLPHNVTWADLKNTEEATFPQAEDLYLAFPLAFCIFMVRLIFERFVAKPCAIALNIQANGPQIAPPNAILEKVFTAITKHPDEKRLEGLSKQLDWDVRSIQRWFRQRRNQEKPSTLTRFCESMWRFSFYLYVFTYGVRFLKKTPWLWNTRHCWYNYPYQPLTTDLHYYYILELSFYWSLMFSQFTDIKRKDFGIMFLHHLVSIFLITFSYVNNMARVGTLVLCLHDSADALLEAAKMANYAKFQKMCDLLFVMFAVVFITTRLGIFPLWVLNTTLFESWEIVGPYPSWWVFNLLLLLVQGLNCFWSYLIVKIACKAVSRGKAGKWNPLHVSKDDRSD

[4] = denaturing intact protein MS; settings: glycan lost; control: wild-type CerS6 (Met1-Asp350)

B1: human ceramide synthase 6 (CerS6), truncated at Asp350 (Met1-Asp350) (enzyme, UniProt Q6ZMG9-2 1-350, looked up)
chain: MAGILAWFWNERFWLPHNVTWADLKNTEEATFPQAEDLYLAFPLAFCIFMVRLIFERFVAKPCAIALNIQANGPQIAPPNAILEKVFTAITKHPDEKRLEGLSKQLDWDVRSIQRWFRQRRNQEKPSTLTRFCESMWRFSFYLYVFTYGVRFLKKTPWLWNTRHCWYNYPYQPLTTDLHYYYILELSFYWSLMFSQFTDIKRKDFGIMFLHHLVSIFLITFSYVNNMARVGTLVLCLHDSADALLEAAKMANYAKFQKMCDLLFVMFAVVFITTRLGIFPLWVLNTTLFESWEIVGPYPSWWVFNLLLLLVQGLNCFWSYLIVKIACKAVSRGKAGKWNPLHVSKDDRSD
modifications: palmitoyl (C16:0) chain covalently attached to His211 (covalent intermediate state; transferred to FB1 in the N-palmitoyl FB1-bound state); N-linked glycan on Asn18; loss of the initiator methionine and acetylation of the new N terminus
notes: Ceramide synthase 6 (CerS6), Homo sapiens, UniProt Q6ZMG9, residues Met1-Asp350; C terminus predicted to be disordered removed; Purified as a mixture of monomer and dimer; the dimer SEC peak was used for the nanobody complexes and cryo-EM; also called acyl–CerS6; palmitoyl–CerS6; not shown: 10xHis, C-terminal, cleaved; Twin-Strep, C-terminal, cleaved
stoichiometry N [1]: 2

B4: CerS6: N18Q (protein)
parent chain: MAGILAWFWNERFWLPHNVTWADLKNTEEATFPQAEDLYLAFPLAFCIFMVRLIFERFVAKPCAIALNIQANGPQIAPPNAILEKVFTAITKHPDEKRLEGLSKQLDWDVRSIQRWFRQRRNQEKPSTLTRFCESMWRFSFYLYVFTYGVRFLKKTPWLWNTRHCWYNYPYQPLTTDLHYYYILELSFYWSLMFSQFTDIKRKDFGIMFLHHLVSIFLITFSYVNNMARVGTLVLCLHDSADALLEAAKMANYAKFQKMCDLLFVMFAVVFITTRLGIFPLWVLNTTLFESWEIVGPYPSWWVFNLLLLLVQGLNCFWSYLIVKIACKAVSRGKVSKDDRSDIESSSDEEDSEPPGKNPHTATTTNGTSGTNGYLLTGSCSMDD
other: presence of covalent palmitoyl-enzyme adduct, other: adduct mass shift [4]: no change, +239.80 vs +238.45

Second part, the binder after the results:

stoichiometry N [2]: 1 per monomer
binding result [3]: binds
B2: nanobody 22 (Nb22), anti-CerS6 camelid nanobody (VHH)
VHH: QVQLVESGGGLVQAEGSLRLSCAASGRTFRTYGMGWFRQAPGKEREFVAALNWSGSSTYYADSVKGRFTISRDNAKNTAYLQMNSLKPEDTAVYYCAALRRKAEYGSRSIADFDSWSKGTPVTVSS
notes: alpaca nanobody raised against CerS6 proteoliposomes; its chain is in the deposited models PDB 8QZ6 and 8QZ7 (residues 1-124 modelled); source: WK6 cells, purified from periplasmic extracts (Ni2+-NTA)

stoichiometry N [2]: 1
binding result [3]: binds
B3: nanobody 02 (Nb02), anti-CerS6 camelid nanobody (VHH)
VHH: QLQFVESGGGLVQAGGSLRLSCAASGRTFSRYAVGWFRQAPGKEREFVASITWNGATTYYADSVKGRFTISRDNAKNTVYLQMNSLKPEDTAVYYCALDLYSYGTRDVADFGSWGKGTRVTVSS
notes: alpaca nanobody raised against CerS6 proteoliposomes; its chain is in the deposited model PDB 9EOT (residues 1-123 modelled); source: WK6 cells, purified from periplasmic extracts (Ni2+-NTA)
